Source: the DeepSol protein solubility set

Test: soluble on expression in E. coli; label from the status in PepcDB or PDB records

Sequence | soluble on expression in E. coli
MMKAKVIDAVSFSYILRTVGDFLSEANFIVTKEGIRVSGIDPSRVVFLDIFLPSSYFEGFEVSQEKEIIGFKLEDVNDILKRVLKDDTLILSSNESKLTLTFDGEFTRSFELPLIQVESTSPPSVNLEFPFKAQLLTITFADIIDELSDLGEVLNIHSKENKLYFEVIGDLSTAKVELSTDNGTLLEASGADVSSSYGMEYVANTTKMRRASDSMELYFGSQIPLKLRFKLPQEGYGDFYIAPRAD | soluble
MTDLHPVKEETFNITAMNNIDPKGFHRDVDTYSETEFGLYMARGANHPRFGYLESWLLPEINLRANIFHFRDGIDEHQDFYFDIAEISHDGHTWHTRDLYVDLISVVGEPVRVDDTDELAAATSAGLITAEDAEKAIDATLLAVDGITRHNDDPMAWLAAMGYPLTWAKNITLKEAE | soluble
MGPTPHIAVIGGGSTGAGIARDLAMRGLDVTLVEQGNLTHGTTGRMHGLLHSGGRYAVSDQASATECIEENRVLRDIASHCVEMTGGLFVKRPEDSEEYFQKKLNGCEECGIPAEVVSGEEARAMEPHLAKDIDKAISVPDGAIDPFRLVVANAASAQEHGARIETHTKVTDLLVESGEVVGIEVEHDSGPGKRVHGTEGGTEQIRADYVVNATGAWAGRIGDMAGLDIEVRPSKGVMTIMNIRQVDTVINRCRPKGDADIVVPHETTAILGTTDEEVEDPEDYPEEQWEVDMMIDTLSELIPMLDEARTIRSFWGVRPLYEPPDVGSDDPTDITRDFFLLDHDERDDLPGMTSIVGGKFTTYRMMGEQIADHVCGKFGIDADCRTADEPLPGSEDFSVLRDYMDEFGLRSPIGRRSVERLGSRADDVLKTDGPNPTVCACEGVTRAEIQDAIGGSGSDLNAVRIRTRASMGNCQGGFCSHRMASELHSEYDEPVVREAWDELLQERWKGQRHALWGEQLSQAALNYALHATTQNRDQDPADGEPVDFSAFDSGRGQTGGSVDSADVAADGGTNGYLEHHHHHH | not soluble
MAGDPMNFVTTLTYLLPHRMLSSLARHVAYCQHPLIKQWLIDTVIAKFDVNLSEAAEPDAHAYPSFNAFFTRSLKTGIRLPDPNPDTLLMPADGRISQLGPIREGRIFQAKGQSFTATELLGDTAAAAAFTNGLFATVYLSPRDYHRVHMPCTGQLLKTVHVPGRLFSVGPDAVRQIPRLFARNERLACHFDTAFGPMVLVMVGALLVSGVETVWGGVEIPAYGDRITHKDYQGRNIAIERFAEMARFNYGSTVIVLLPPNVFTLAPHLTAESPVTLGQALAHRLSLNHSTQAPTQEKLEHHHHHH | not soluble
MGSDKIHHHHHHGNSKSRNDRTETVDKEVIKAPEFDADSAYQYIQVQADFGPRVPNTQAHKECGEYLAGQLEKFGAKVYNQYADLIAYDGTILKSRNIIGAYKPESKKRILLCAHWDSRPYADNDPDPKNHHTPILGVNDGASGVGVLLEIARQIQKEQPALGIDIVFFDSEDYGIPEFYDGKYKQDTWCLGSQYWARTPHVQNYNARYGILLDMVGGKDATFYYEGYSARTARSEMKKIWKKAHELGYGKYFVKEDGGETVDDHIYVNKLARIPCVDIINYDAGNPQSSFGSFWHTVNDTMENIDRNTLKAVGQTVMDVIYNEK | not soluble
MSLKTKLIVVLGPTAVGKTALGIKLAQQFHGEIISGDSQQVYRKLDIGTAKATAAEQAAVPHHLIDVREVDENYSAFDFVQEATKEIANICARGYLPIIVGGTGLYLQSLLEGYHLGGQVDHEAVLAYRRELETLSDTELSQLVETKQIVMTEPNRRRLMRSLELHKFSQGVQNQGSPYDVLLIGLNDNRQDLYERINARVDKMMAAGLLDEAKWLYDNYPHAQATRGIGYKELFPYFAGDIGLEEAVEKIKQNTRRFAKRQLTWFKNRMAVSFYSVSDSDYKGKINQAVVDFLRNEGHHHHHH | soluble
MGSDKIHHHHHHMQGAQSTVDTQSESLNADRSASVDGHPIIVGAFINMYQQLNKDNLFLLRQVYRDDICFRDPMHHVEGIEALTDYFANMYQNVTHIEFDIKEVVISADKQQAALYWTMSYSHPKLSKGQLINVEGMSQLKFSDKIFSHRDYFDLGQMLYEQVPFLGGLIGLLKNRVTK | not soluble
MGSDKIHHHHHHMDGINTLRYSDLFLAMYFDGGKSCLHRNHSHVLVYVYSGEMVIDEKGQITRLHKGECAFIRKDFSVQMTKQAWNGEQFKAIFLMFTMKFLRDFYSKLDRNTLPKDAKRDQVSLYKLPSNRPDIVSLFESMTPYFNSKIQPTDELLQLKMVEGVYVLLNTDKNLYASIFDFTDPWKIDILEFMERNYMNDISMEEIANYTGRSLSTFKRDFKKCSALSPREWLIRRRLEAAHGLIRKGGRKVSEICFEVGFKNLSHFSKIYKIAYGVPPTEDI | not soluble
MGSDKIHHHHHHMKRQRLAIIDIGSNSIRLVINTINEHGHYQELYNFKTVARLSNHLDAQGNLTKEGTSILLTTLQKFRTLTEDHHCDRAIVVATAAMRKANNRKELLKLAEQETGFSIKLLSEYEEAYFGYLAIVNSTSIQDGITIDIGGGSTEITRFSNRKLLHYHSFPFGAITLYRDFFHSTDPSEEELASLQTFLESAFATLPWLQDAKDLPVIGIGGTARNLSLIHQRQTDYPLAGLHQYSFPAEELHSVTQMLQRLTSSEREGLDGLSKDRVDVIIPGTQAISSLVKTIGSSQFIMSRKGLRDGLFYSEILEQLNLECFPNVVEESFYQLYHQYEINLEHVKQVAKLATKLYEQLAPFYNGKLEHQQNLTLIHRAARVLYLGEHINPEASSQHTFYLLTNMSIDGLNHEERLALACVSSFKSKAQLLHMASPFMPLISKKQLKRFEFLGAILKLAYCLNRTRRHVIGKIGTIEAKRDALVLPLYYHYDLDPSFEQDYALKHVKHVEKVIKKTIELPFLPLSNFT | not soluble
MGSDKIHHHHHHMREKIKLELERIEKENDVKILFAVESGSRVWGFPSKDSDYDVRFVYMHPVEWYLSIHDKRDVIEYPISDDLDISGWDIKKALQLFAKSNPALLEWIRSPIFYSKNSNFPEQLQQMSEKNFDPKATIYHYLHMASKNYREFLQGENVKLKKYFYVLRPILACKWLEEKTTLPPVEFDRLITELSIERSVLDEIEQLLIKKKAGTELDVGLKIEVLNQFLEEQIHYYQQYVKGIEKGSGIDIESLNTLFRDMLFAVYEKEHK | not soluble
MGSDKIHHHHHHMDKLLYIAMSGAKQNMQALSINANNLANAKTTGFKADLAQARSMQAFGEGLPSRVFSMTERASQNFDSGSILHTGRSLDMAIEGEGFFAVQAEDGQEAYTRGGHFRLTETGALETNDGELVIGENGPITLPLPINNIQISRDGTIMVQPAGAPSSVQEEVGRIKLVNPDTRLVDKGNDGLFRAKNGGQLIADVNVNVLGGALESSNVNPINEMTDMIALQRQFEMQLKMMKTAEEIDSSASSLLRAF | not soluble
MVTQNKKILIITGSFGNGHMQVTQSIVNQLNEMNLNHLSVIQHDLFMEAHPIMTSICKKWYINSFKYFRNTYKRFYYSRPNELDKCFYKYYGLNKLINLLIKEKPDLILLTFPTPVMSVLTEQFNINIPIATVMTDYRMHKNWITPYSQRYYVATKDTKDDFIEAGVPASYIKVTGIPIADKFEESIDKEEWLSQQHLDPSKPTILMSAGAFGVSKGFDYMINNILEKSPNSQVVMICGRSKELKRSLKAKFKDNPSVKILGYTNHMNEWMASSQLMITKPGGITISEGLSRCIPMIFLNPAPGQELENAYYFESKGFGKIADTPNEAIDIVSDLTNNEETLKVMSSKMLESKVGYSTRKICKDLLDLIGHSSQPDEIYGKVPLYARFFVKLEHHHHHH | soluble
MSLKIDAVDLFYLSMPEVTDAADGSQDALLVRVAAGGHIGWGECEAAPLPSIAAFVCPKSHGVCRPVSDSVLGQRLDGPDDIARIAALVGYNSMDLLQAPHMLSGIEMALWDLLGRRLSAPAWALLGYSASHGKRPYASLLFGDTPQETLERARAARRDGFAAVKFGWGPIGRGTVAADADQIMAAREGLGPDGDLMVDVGQIFGEDVEAAAARLPTLDAAGVLWLEEPFDAGALAAHAALAGRGARVRIAGGEAAHNFHMAQHLMDYGRIGFIQIDCGRIGGLGPAKRVADAAQARGITYVNHTFTSHLALSASLQPFAGLEADRICEYPAAPQQLALDITGDHIRPDAEGLIRAPEAPGLGLQVAASALRRYLVETEIRIGGQLIYRTPQLEGHHHHHH | soluble
